Reference: publication PMC6648343, “Remodeling and destabilization of chromosome 1 pericentromeric heterochromatin by SSX proteins” (Nucleic Acids Research, 2019)

Biological target: the molecule itself
Experiment: cross-linking; recombinant SSX2 diluted to indicated concentrations in 20 mM PBS (pH 7.4), 50 mM NaCl; 0.1% glutaraldehyde, 2 min at 37°C, quenched with glycine; oligomerization analysed by Western blotting

B1: recombinant SSX2 (natural protein, UniProt Q16385 1-188, looked up)
chain: MNGDDAFARRPTVGAQIPEKIQKAFDDIAKYFSKEEWEKMKASEKIFYVYMKRKYEAMTKLGFKATLPPFMCNKRAEDFQGNDLDNDPNRGNQVERPQMTFGRLQGISPKIMPKKPAEEGNDSEEVPEASGPQNDGKELCPPGKPTTSEKIHERSGPKRGEHAWTHRLRERKQLVIYEEISDPEEDDE
notes: SSX2; GenBank CAA60111.1 is printed for SSX2 in the structure modelling; also called recombinant, purified SSX2; source: recombinant, purified
  binding result: binds
